The nature of the series: background-corrected fluorescence of 3'-dye-labeled ssDNA relative to brightest sequence (3'-GCGCG) (fraction); higher = brighter dye fluorescence (less quenching). In outline: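 Single-stranded DNA was built on glass slides by light-directed phosphoramidite synthesis, ending in a 3' Cy3 or Cy5 dye beside each of 1024 permuted pentamers. Arrays were washed in acetonitrile for 2 h at r.t., then scanned at 532 or 635 nm before and after overnight ethylenediamine/ethanol deprotection. Each value averages 10 features per array and at least 3 syntheses. Fluorescence, corrected by subtracting unlabeled-oligo background, is scaled to the brightest sequence.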

± gives the standard error.

“TTTTTTCAGCATGATGCTGATTTTTTTTTTTTTTTGTCAC [CACTG]” returned a background-corrected fluorescence (dye: Cy3 (3' terminal)) of 0.417 ± 0.0042 and a background-corrected fluorescence (dye: Cy5 (3' terminal)) of 0.336 ± 0.022.
On to “TTTTTTGATCATCATGATGCTTTTTTTTTTTTTTTCGGCA [ACGGC]”, for which the background-corrected fluorescence stood at 0.612 ± 0.015 (dye: Cy3 (3' terminal)) and 0.493 ± 0.034 (dye: Cy5 (3' terminal)).
As for “TTTTTGCATCATGCTGATGCTTTTTTTTTTTTTTTTGACA [ACAGT]”, the background-corrected fluorescence by setting is: (dye: Cy3 (3' terminal)) 0.527 ± 0.019; (dye: Cy5 (3' terminal)) 0.411 ± 0.026.
For “TTTTTTGCTGATGATCATGCTTTTTTTTTTTTTTTACCGA [AGCCA]”, the background-corrected fluorescence worked out at 0.601 ± 0.025 (dye: Cy3 (3' terminal)) and 0.515 ± 0.031 (dye: Cy5 (3' terminal)).
For “TTTTTGCATCATGATCAGCATTTTTTTTTTTTTTTTGCGT”, the background-corrected fluorescence was determined as 0.6597 ± 0.003 (dye: Cy3 (3' terminal)) and 0.516 ± 0.061 (dye: Cy5 (3' terminal)).
In the case of “TTTTTTGCTGCGCATGAGCATTTTTTTTTTTTTTTAATCT [TCTAA]”, the background-corrected fluorescence stood at 0.483 ± 0.036 (dye: Cy3 (3' terminal)) and 0.338 ± 0.02 (dye: Cy5 (3' terminal)).
For the sequence “TTTTTTGATCATGCTCAGCATTTTTTTTTTTTTTTCGAGT [TGAGC]”, the background-corrected fluorescence is, setting by setting: (dye: Cy3 (3' terminal)) 0.684 ± 0.026; (dye: Cy5 (3' terminal)) 0.477 ± 0.058.
In the case of “TTTTTTGATGATGATCATGCTTTTTTTTTTTTTTTCCCGA [AGCCC]”, the background-corrected fluorescence stood at 0.629 ± 0.051 (dye: Cy3 (3' terminal)) and 0.554 ± 0.034 (dye: Cy5 (3' terminal)).
Take “TTTTTTCATCATGCGCATGCTTTTTTTTTTTTTTTGGATA [ATAGG]”: the background-corrected fluorescence (dye: Cy3 (3' terminal)) amounted to 0.582 ± 0.026 and the background-corrected fluorescence (dye: Cy5 (3' terminal)) worked out at 0.479 ± 0.045.
Taken in the same sequence, the figures for “TTTTTTGCGCATGATCATGATTTTTTTTTTTTTTTATCGC [CGCTA]” were 0.534 ± 0.017 and 0.439 ± 0.02.
Taken in the same sequence, the figures for “TTTTTGCATGAGCAGCATCATTTTTTTTTTTTTTTTCTTG [GTTCT]” were 0.489 ± 0.023 and 0.371 ± 0.032.
“TTTTTTGATGAGCATCATCATTTTTTTTTTTTTTTCCTGG [GGTCC]”: the background-corrected fluorescence stood at 0.557 ± 0.023 (dye: Cy3 (3' terminal)) and 0.47 ± 0.054 (dye: Cy5 (3' terminal)).
On to “TTTTTTCATGCGCATGCGCATTTTTTTTTTTTTTTGATAT [TATAG]”, for which the background-corrected fluorescence was 0.532 ± 0.024 (dye: Cy3 (3' terminal)) and 0.382 ± 0.018 (dye: Cy5 (3' terminal)).
Consider “TTTTTTGATGCGCATGCTGCTTTTTTTTTTTTTTTCATAA [AATAC]”, for which the background-corrected fluorescence is, setting by setting: (dye: Cy3 (3' terminal)) 0.529 ± 0.021; (dye: Cy5 (3' terminal)) 0.428 ± 0.022.
As to “TTTTTTCATGATGCTGCTGATTTTTTTTTTTTTTTGCAAC [CAACG]”, the background-corrected fluorescence (dye: Cy3 (3' terminal)) was found to be 0.469 ± 0.014 and the background-corrected fluorescence (dye: Cy5 (3' terminal)) was found to be 0.319 ± 0.017.
For the sequence “TTTTTTGAGCATCAGCATGATTTTTTTTTTTTTTTCTGTC”, the background-corrected fluorescence runs as follows: (dye: Cy3 (3' terminal)) 0.443 ± 0.03; (dye: Cy5 (3' terminal)) 0.352 ± 0.018.
For “TTTTTTGCTGCTGATGCTGATTTTTTTTTTTTTTTAACAC [CACAA]” the same measures were 0.421 ± 0.035 and 0.306 ± 0.021.
Turning to “TTTTTTCAGCATGATGATGATTTTTTTTTTTTTTTGTCCC [CCCTG]”, the background-corrected fluorescence by setting is: (dye: Cy3 (3' terminal)) 0.38 ± 0.023; (dye: Cy5 (3' terminal)) 0.294 ± 0.019.
“TTTTTTCAGCAGCATGCGCATTTTTTTTTTTTTTTGTTAT [TATTG]” gave a background-corrected fluorescence (dye: Cy3 (3' terminal)) of 0.546 ± 0.048 and a background-corrected fluorescence (dye: Cy5 (3' terminal)) of 0.389 ± 0.017.
Take “TTTTTTGCGCAGCAGCAGCATTTTTTTTTTTTTTTATTTT”: the background-corrected fluorescence (dye: Cy3 (3' terminal)) is 0.488 ± 0.022 and the background-corrected fluorescence (dye: Cy5 (3' terminal)) is 0.381 ± 0.02.
For “TTTTTTCATGATGAGCATGATTTTTTTTTTTTTTTGCCTC [CTCCG]” the same measures were 0.354 ± 0.016 and 0.286 ± 0.06.
For “TTTTTTGCTCATGATGCTGCTTTTTTTTTTTTTTTAGCAA [AACGA]” the same measures were 0.579 ± 0.03 and 0.427 ± 0.03.
For “TTTTTGCATGAGCATGAGCATTTTTTTTTTTTTTTTCTCT” the same measures were 0.464 ± 0.014 and 0.332 ± 0.024.
Consider “TTTTTTGATGCGCATGATCATTTTTTTTTTTTTTTCATCG [GCTAC]”, for which the background-corrected fluorescence is, setting by setting: (dye: Cy3 (3' terminal)) 0.543 ± 0.018; (dye: Cy5 (3' terminal)) 0.375 ± 0.026.
Take “TTTTTTCATGATCATCATGCTTTTTTTTTTTTTTTGCGGA [AGGCG]”: the background-corrected fluorescence (dye: Cy3 (3' terminal)) was determined as 0.786 ± 0.033 and the background-corrected fluorescence (dye: Cy5 (3' terminal)) came to 0.689 ± 0.033.
On to “TTTTTTGCTGCTCATCATCATTTTTTTTTTTTTTTAAGGG [GGGAA]”, for which the background-corrected fluorescence reads like this: (dye: Cy3 (3' terminal)) 0.649 ± 0.021; (dye: Cy5 (3' terminal)) 0.558 ± 0.029.
Take “TTTTTGCATCATGCGCATCATTTTTTTTTTTTTTTTGATG [GTAGT]”: the background-corrected fluorescence was 0.53 ± 0.0055 (dye: Cy3 (3' terminal)) and 0.409 ± 0.037 (dye: Cy5 (3' terminal)).
“TTTTTTCATGCGCATCATGATTTTTTTTTTTTTTTGATGC [CGTAG]”: the background-corrected fluorescence (dye: Cy3 (3' terminal)) was found to be 0.522 ± 0.031 and the background-corrected fluorescence (dye: Cy5 (3' terminal)) worked out at 0.425 ± 0.03.
Consider “TTTTTTGCTGATGATGATGATTTTTTTTTTTTTTTACCCC [CCCCA]”, for which the background-corrected fluorescence by setting is: (dye: Cy3 (3' terminal)) 0.358 ± 0.016; (dye: Cy5 (3' terminal)) 0.271 ± 0.027.

The values above are taken from the supplement of paper PMC9428881.
